Assay in all cases: fluorescence polarisation; direct binding: 10 nM FAM-labeled peptide, receptor serially diluted; 25°C; 20 mM NaPO4, 50 mM NaCl, 1 mM EDTA, 0.001% Triton X, pH 7.8; single-site binding model
Conditions in all cases: both partners purified
A general note: Fluorescence polarisation rises when a labelled molecule tumbles more slowly, as on binding a larger partner.

The target of assay [1] is T1, Bcl-w (human, UniProt Q92843 1-193).
T1 construct: human Bcl-w; The c-Myc tag is told for the SPOT arrays; also called c-Myc-tagged receptor; prosurvival protein
T1 sequence (looked up): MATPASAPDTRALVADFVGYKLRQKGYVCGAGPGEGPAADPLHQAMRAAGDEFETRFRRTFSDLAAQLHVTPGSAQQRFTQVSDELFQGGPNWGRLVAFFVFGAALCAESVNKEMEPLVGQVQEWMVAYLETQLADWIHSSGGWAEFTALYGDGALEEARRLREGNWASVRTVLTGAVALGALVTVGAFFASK

In assay [2] the target is T2, Bcl-2 (human, UniProt P10415 1-239).
T2 construct: human Bcl-2; The c-Myc tag is told for the SPOT arrays; also called c-Myc-tagged receptor; prosurvival protein

The target of assay [3] is T3, Mcl-1 (human, UniProt Q07820 1-350).
T3 construct: human Mcl-1; The c-Myc tag is told for the SPOT arrays; also called c-Myc-tagged receptor; prosurvival protein

The target in assay [4] is T4, Bfl-1 (human, UniProt Q16548 1-175).
T4 construct: human Bfl-1; The c-Myc tag is told for the SPOT arrays; also called c-Myc-tagged receptor; prosurvival protein
T4 sequence (looked up): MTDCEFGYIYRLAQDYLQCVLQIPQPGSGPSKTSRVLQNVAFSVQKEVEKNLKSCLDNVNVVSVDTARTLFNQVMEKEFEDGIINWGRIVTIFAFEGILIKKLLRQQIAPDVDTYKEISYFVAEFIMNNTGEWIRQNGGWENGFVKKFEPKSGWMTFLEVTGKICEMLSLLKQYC

FAM = fluorescein group

What is called Kd is the equilibrium constant for the complex coming apart. A low value points to tighter binding.

T2 sequence (P10415 whole entry): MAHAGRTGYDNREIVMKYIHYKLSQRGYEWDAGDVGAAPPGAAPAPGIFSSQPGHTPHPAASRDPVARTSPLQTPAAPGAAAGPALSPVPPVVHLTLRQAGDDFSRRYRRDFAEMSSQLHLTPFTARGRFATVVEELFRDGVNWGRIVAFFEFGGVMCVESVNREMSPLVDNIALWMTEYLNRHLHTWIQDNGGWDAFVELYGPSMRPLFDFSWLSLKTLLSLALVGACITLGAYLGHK
T3 sequence (Q07820 whole entry): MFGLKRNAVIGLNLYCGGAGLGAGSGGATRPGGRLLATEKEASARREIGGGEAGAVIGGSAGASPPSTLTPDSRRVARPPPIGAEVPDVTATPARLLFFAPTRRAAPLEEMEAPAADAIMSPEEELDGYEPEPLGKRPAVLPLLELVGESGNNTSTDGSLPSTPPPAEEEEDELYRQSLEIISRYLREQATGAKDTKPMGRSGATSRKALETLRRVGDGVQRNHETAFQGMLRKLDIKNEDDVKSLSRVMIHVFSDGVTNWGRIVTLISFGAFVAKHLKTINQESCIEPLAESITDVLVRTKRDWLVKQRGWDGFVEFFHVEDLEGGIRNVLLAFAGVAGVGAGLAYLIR

Consider {FAM}-IIQMIVELLKRVGDQWEEEQSLA-NH2 [c6orf222 BH3-like peptide], for which the Kd in assay [1], in assay [2], in assay [3] and in assay [4] was less than 30 nM throughout.

{FAM}-PFKAWGKFGGAFCRYADEMKEIQERQ-NH2 [PURB BH3-like peptide] showed a Kd in assay [2] of 40 nM. In other words, the double-digit nanomolar range.

These data come from paper PMC4072508 (PLoS Computational Biology, 2014).
